Measurements as given in patent publication US20220242958A1, “BISPECIFIC NANOBODIES” (Ablynx N.V., priority 2013, published 2022).
Read-outs that look alike come from different tables or passages of the source.

Legend:
CXCR4 on Jurkat cells = target: T1, CXCR4 on Jurkat cells (Homo sapiens, UniProt P61073); test: Binding of CXCR4 Nanobodies to Jurkat cells
T1 construct: endogenous in cells; host or cells: Jurkat E6-1

[1] = target: T2, CXCR4 on Caki-CXCR4 cells (Homo sapiens, UniProt P61073); test: Biotinylated SDF-1 displacement on Caki-CXCR4 cells (flow cytometry); format: binding; conditions: 30 nM biotinylated SDF-1; read-out: Ligand competition Biotin-SDF-1 IC50
T2 construct: expressed in transfected cells; host or cells: Caki-CXCR4
Procedure: CXCR4 Nanobodies were analysed for their ability to compete with the ligand CXCL12 (or SDF-1a) for receptor binding, by displacement of biotinylated SDF-1 on Caki-CXCR4 cells in flow cytometry. To this end serial dilutions of Nanobodies were incubated with 30 nM of biotinylated SDF-1 (R&D Systems Fluorokine kit) on cells, after which ligand binding was visualised using extravidin-PE. The biotin-SDF-1 competitor concentration used in this assay was below the EC50 value obtained in dose-titration, where IC50 values should reflect the Ki.

CXCR4 on MOLM-13 cells = target: T3, CXCR4 on MOLM-13 cells (Homo sapiens, UniProt P61073); test: CXCL12/SDF-1a induced chemotaxis of MOLM-13 cells; format: cell-based; conditions: average of 2-3 independent experiments; unit inferred; read-out: MOLM-13 IC50, inhibition of CXCL-12 induced chemotaxis
T3 construct: endogenous in cells; host or cells: MOLM-13
Procedure: (§1) To verify if bispecific CXCR4-IL3Ra polypeptides show increased affinity and potency on cells expressing both receptors, a CXCR4-dependent functional assay was carried out. To this end SDF-1a dependent chemotaxis on Jurkat E6-1 (CXCR4+/IL3Ra−), and MOLM-13 cells (CXCR4+/IL3Ra+) was performed for direct comparison of cells expressing both or only one receptor. Since the functional blockade is only mediated via CXCR4, avidity by the simultaneous binding of the anti-IL3Ra Nanobody® is expected to translate into increased potency in inhibition of chemotaxis.
Bispecific polypeptides were analyzed for inhibition of CXCL12-induced chemotaxis on cells endogenously expressing CXCR4. As chemoattractant a concentration of 750 pM SDF-1a was used on 100,000 cells/well for the Jurkat cell line, and 500,000 cells/well for the MOLM-13 cell line. On each plate the corresponding monovalent CXCR4 Nanobody was included as reference, allowing to calculate the fold increase of the bispecific within each plate. As additional control 1:1 mixtures of monovalent Nanobodies were included. In Table 9 the respective IC50 values are shown (average of n=3 experiments). […]
Dose-dependent inhibition of CXCL12-induced chemotaxis by the panel of bispecific CD4-CXCR4 Nanobodies was determined on Jurkat (CXCR4+/CD4 low), and Molm-13 cells (CXCR4++/CD4++). […]

[2] = target: T2, CXCR4 on Caki-CXCR4 cells; test: Binding of CXCR4 Nanobodies to Caki-CXCR4 cells
[3] = target: T4, CXCR4 on Jurkat E6-1 cells (Homo sapiens, UniProt P61073); test: CXCL12/SDF-1a induced chemotaxis of Jurkat E6-1 cells; format: cell-based
T4 construct: endogenous in cells; host or cells: Jurkat E6-1
Procedure: as §1
Bispecific polypeptides were analyzed for inhibition of CXCL12-induced chemotaxis on cells endogenously expressing CXCR4. As chemoattractant a concentration of 750 pM SDF-1a was used on 100,000 cells/well for the Jurkat cell line, and 500,000 cells/well for the MOLM-13 cell line. On each plate the corresponding monovalent CXCR4 Nanobody was included as reference, allowing to calculate the fold increase of the bispecific within each plate. As additional control 1:1 mixtures of monovalent Nanobodies were included. In Table 9 the respective IC50 values are shown (average of n=3 experiments).
To verify if bispecific CXCR4-IL-3Ra polypeptides show increased affinity and potency on cells expressing both receptors, a CXCR4-dependent functional assay was done. Since MOLM-13 cells express CD4 in conjunction with CXCR4 and CD123, the same experimental set-up was used as described for the CXCR4-CD123 bispecific Nanobodies (see: Example 1.5.5).
Dose-dependent inhibition of CXCL12-induced chemotaxis by the panel of bispecific CD4-CXCR4 Nanobodies was determined on Jurkat (CXCR4+/CD4 low), and Molm-13 cells (CXCR4++/CD4++). As reference anti-CXCR4 antibody 12G5 was included on each plate. […] Remarkably, bispecific constructs in the inverse orientation were able to block CXCR4 function, despite their reduced affinity for CXCR4 due to the unfavourable position, although the blockade was partial. The much larger potency increases observed with Nanobodies targeting the CD4 and CXCR4 combination is most likely related to the higher relative expression levels of CD4 compared to CD123 on the Molm-13 cells.

CXCR4-VLP = target: T5, CXCR4-VLP (Homo sapiens, UniProt P61073); test: ELISA binding to CXCR4 viral lipoparticles (VLP)
T5 construct: purchased Integral Molecular (printed 'Molecular Integral')
Procedure: Binding of CXCR4 Nanobodies to CXCR4-expressing cells was assessed on different cell lines, to assess EC50 values. For CXCR4 the membrane insertion is needed for proper conformation and functionality of the receptor. Therefore CXCR4 Nanobodies were characterized for binding to viral lipoparticles (VLP; Molecular Integral) expressing CXCR4 versus control lipoparticles in ELISA. To this end VLPs were coated at 0.5 U/well overnight at 4° C. using anti-myc antibodies for detection. Over all different binding assays, Nanobody 14D09 always exerted lower binding affinity than 14A02, as indicated by a shift in EC50 values. The results are depicted in FIG. 1.3.
To assess if the formatting into bispecific constructs affected the target binding capacity of the individual Nanobodies, the bispecific Nanobodies were analysed for binding to recombinant IL-3Ra (R&D Systems) in ELISA and to CXCR4 viral lipoparticles (Integral Molecular). […] However, CXCR4 binding of constructs with either CXCR4#1 or CXCR4#2 is retained only in one orientation, when the CXCR4 Nanobody is at the N-terminal position. The bispecific constructs where the CXCR4 Nanobody is positioned C-terminal show a 50-100-fold loss in binding to CXCR4-VLPs.

T4 sequence (P61073 whole entry): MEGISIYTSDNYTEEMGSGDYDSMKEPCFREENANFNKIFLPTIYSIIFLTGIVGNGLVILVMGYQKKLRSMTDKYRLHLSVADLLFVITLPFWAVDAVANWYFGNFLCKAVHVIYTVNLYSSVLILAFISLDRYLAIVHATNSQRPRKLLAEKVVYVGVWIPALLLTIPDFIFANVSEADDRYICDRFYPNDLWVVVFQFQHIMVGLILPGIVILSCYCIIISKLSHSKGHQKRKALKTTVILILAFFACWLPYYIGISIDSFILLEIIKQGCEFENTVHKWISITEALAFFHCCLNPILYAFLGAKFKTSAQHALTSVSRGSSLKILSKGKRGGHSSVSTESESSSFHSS
T2 sequence (P61073 whole entry): as above
T3 sequence (P61073 whole entry): as above
T1 sequence (P61073 whole entry): as above
T5 sequence (P61073 whole entry): as above

EC50 (CXCR4 on Jurkat cells): 11 nM
IC50 [1]: 18.4 nM
IC50 (CXCR4 on MOLM-13 cells): 8.62 nM
EC50 [2]: 9.9 nM
IC50 ([3]; average of 2-3 independent experiments, unit inferred, read-out: Jurkat E6-1 IC50, inhibition of CXCL-12 induced chemotaxis): 10.4 nM
IC50 ([3]; cell line not stated, read-out: IC50 of monovalent CXCR4 Nanobody (chemotaxis potency)): 10 nM
IC50 ([3]; monovalent CXCR4 Nanobodies, Table 4, read-out: Chemotaxis Jurkat IC50): 11 nM
EC50 (CXCR4-VLP): 7.28 nM
B1: CXCR4#1: anti-CXCR4 Nanobody, SEQ ID NO: 1 (protein)
VHH: EVQLVESGGGLVQAGGSLRLSCVASGISSSKRNMGWYRQAPGKQRESVATISSGGNKDYTDAVKDRFTISRDTTKNTVYLQMNSLKPEDTAVYYCKIEAGTGWATRRGYTYWGQGTQVTVSS
